The target of assay [1] is T1, human interleukin 10 (R&D Systems, Cat. No. 217-IL/CF) (human, UniProt P22301 19-178).
T1 construct: also called hIL-10; human IL-10
As to the kind of experiment: antigen ELISA on plate-coated hIL-10 (2 µg/ml), COS-7 supernatants adjusted to the same antibody concentration; one concentration, not given. The text has this:
In brief, the expression vectors coding for the light chain and for the heavy chain were transiently cotransfected into COS-7 cells by calcium phosphate precipitation in DMEM containing 10% FCS in a 24-well format. After transfection the medium was replaced by the serum free medium CHO-S-SFM II (Invitrogen, Germany) and the supernatants of the COS-7 cells were collected 2-3 days after transfection. The antibody titer of the humanized antibodies secreted into the supernatants of transfected COS-7 cells were analyzed by a sandwich ELISA. Based on the determined antibody concentrations supernatants of all samples were adjusted to the same antibody concentrations, and all samples were used to analyze binding to human IL-10 in an antigen ELISA, whereby Maxisorb plates (Nunc, Germany) were coated with 2 μg/ml hIL-10 in PBS.

The target in assay [2] is T1, human interleukin 10 (R&D Systems, Cat. …). As to the kind of experiment: SPR Biacore 2000, hIL-10 immobilised on CM-5 chip, antibody as analyte, n=6. How it is done:
(§1) Surface plasmon resonance analysis was used to measure the association and dissociation rate constants for binding of the different antibodies (murine, chimeric, 3 humanized variants) towards hIL-10 using BIACORE 2000 (Biacore AB, Uppsala, Sweden). hIL-10 was immobilized on a CM-5 sensor chip according to manufacturers conditions. hIL-10 was immobilized by adding a 50 μl aliquot of 20 μg/ml at a flow rate of 5 μl/minute resulting in an immobilization density of 320RU. The immobilized hIL-10 surface was regenerated in a two step cycle by using 0.1M carbonate buffer pH 9.2 and 0.01M HCL/1M NaCl at flow rates of 50 μl/minute for one minute each. Each antibody sample was analyzed at least 4 times in antibody concentration ranges of 20-0.15 μg/ml. Calculations from the sensograms were performed by using the BIA evaluation version 3 (1999) software.

The target is the same in assay [3]. As to the kind of experiment: SPR Biacore 2000, hIL-10 immobilised on CM-5 chip. How it is done: as §1
However, slight differences are detectable. […] Slight differences in association and dissociation rates are also detectable.

The target is the same in assay [4]. As to the kind of experiment: SPR Biacore 2000, hIL-10 immobilised on CM-5 chip, antibody as analyte, n=4. How it is done:
as §1

T1 sequence (P22301 19-178): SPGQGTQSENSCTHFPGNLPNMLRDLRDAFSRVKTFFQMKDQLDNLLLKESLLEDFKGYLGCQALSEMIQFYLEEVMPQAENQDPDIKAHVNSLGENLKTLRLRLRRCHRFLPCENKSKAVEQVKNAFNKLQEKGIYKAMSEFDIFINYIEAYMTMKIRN

B1: humanized antibody variant hVH13/hVL8 (antibody, V domains shown)
VH: EVQLVESGGGLVQPGGSLRLSCAASGFTFSTYGVHWVRQAPGKGLEWVSVIWRGGSTDYSAAFMSRFTISRDNSKNTVYFQMNSLRAEDTAVYYCARQAYGHYMDYWGQGTLVTVSS
VL: DVLMTQSPLSLPVTLGQPASISCRSSQNIVHSNGNTYLEWFQQRPGQSPRLLIYKVSNRFSGVPDRFSGSGSGTDFTLKISRVEAEDVGVYYCFQGSHVPWTFGGGTKVEIK
notes: human constant kappa and gamma-1; tested as COS-7 supernatant
For the molecule B1, in assay [1], the binding result was “binds”.

B2: humanized antibody variant hVH18/hVL7 (antibody, V domains shown)
VH: EVQLVESGGGLVQPGGSLRLSCAASGFSFATYGVHWVRQSPGKGLEWLGVIWRGGSTDYSAAFMSRLTISKDNSKNTLYLQMNSLRAEDTAVYYCARQAYGHYMDYWGQGTLVTVSS
VL: DVVMTQSPLSLPVTLGQPASISCRSSQNIVHSNGNTYLEWYLQRPGQSPRLLIYKVSNRFSGVPDRFSGSGSGTDFTLKISRVEAEDVGVYYCFQGSHVPWTFGQGTKVEIK
notes: as for B1
As for B2, the binding result in assay [1] was “binds”.

B3: BT-063-1 (hVH20/hVL7) (antibody, V domains shown)
VH: EVQLVESGGGLVQPGGSLRLSCAASGFSFATYGVHWVRQSPGKGLEWLGVIWRGGSTDYSAAFMSRLTISKDNSKNTVYFQMNSLRAEDTAVYFCAKQAYGHYMDYWGQGTSVTVSS
VL: DVVMTQSPLSLPVTLGQPASISCRSSQNIVHSNGNTYLEWYLQRPGQSPRLLIYKVSNRFSGVPDRFSGSGSGTDFTLKISRVEAEDVGVYYCFQGSHVPWTFGQGTKVEIK
notes: also called BT-063 variant hVH20/hVL7
Turning to B3, in assay [2], the Kd was 1.22 nM, the koff was 0.00103 s⁻¹ and the kon was found to be 1.21e+06 M⁻¹ s⁻¹.

B4: humanized antibody variant hVH28/hVL8 (antibody, V domains shown)
VH: EVQLVESGGGLVQPGGSLRLSCAASGFSFATYGVHWVRQSPGKGLEWLGVIWRGGSTDYSAAFMSRLTISKDNSKNTVYFQMNSLRAEDTAVYYCARQAYGHYMDYWGQGTSVTVSS
VL: DVLMTQSPLSLPVTLGQPASISCRSSQNIVHSNGNTYLEWFQQRPGQSPRLLIYKVSNRFSGVPDRFSGSGSGTDFTLKISRVEAEDVGVYYCFQGSHVPWTFGGGTKVEIK
notes: as for B1
For the molecule B4, in assay [1], the binding result is on record as “binds”.

B5: BT-063-2 (hVH20/hVL8) (antibody, V domains shown)
VH: EVQLVESGGGLVQPGGSLRLSCAASGFSFATYGVHWVRQSPGKGLEWLGVIWRGGSTDYSAAFMSRLTISKDNSKNTVYFQMNSLRAEDTAVYFCAKQAYGHYMDYWGQGTSVTVSS
VL: DVLMTQSPLSLPVTLGQPASISCRSSQNIVHSNGNTYLEWFQQRPGQSPRLLIYKVSNRFSGVPDRFSGSGSGTDFTLKISRVEAEDVGVYYCFQGSHVPWTFGGGTKVEIK
notes: also called BT-063 variant hVH20/hVL8
As for B5, in assay [3], the “factor of reduced affinity compared to the murine B-N10” value was about 3 fold. In assay [4], this molecule showed a Kd of 2.81 nM, a koff of 0.00164 s⁻¹ and a kon of 1.21e+06 M⁻¹ s⁻¹.

B6: humanized antibody variant hVH18/hVL8 (antibody, V domains shown)
VH: EVQLVESGGGLVQPGGSLRLSCAASGFSFATYGVHWVRQSPGKGLEWLGVIWRGGSTDYSAAFMSRLTISKDNSKNTLYLQMNSLRAEDTAVYYCARQAYGHYMDYWGQGTLVTVSS
VL: DVLMTQSPLSLPVTLGQPASISCRSSQNIVHSNGNTYLEWFQQRPGQSPRLLIYKVSNRFSGVPDRFSGSGSGTDFTLKISRVEAEDVGVYYCFQGSHVPWTFGGGTKVEIK
notes: as for B1
Take B6: the binding result in assay [1] was “binds”.

B7: humanized antibody variant hVH1/hVL7 (antibody, V domains shown)
VH: EVQLVESGGGLVQPGGSLRLSCAASGFTFSTYGVHWVRQAPGKGLEWVSVIWRGGSTDYSAAFMSRFTISRDNSKNTLYLQMNSLRAEDTAVYYCARQAYGHYMDYWGQGTLVTVSS
VL: DVVMTQSPLSLPVTLGQPASISCRSSQNIVHSNGNTYLEWYLQRPGQSPRLLIYKVSNRFSGVPDRFSGSGSGTDFTLKISRVEAEDVGVYYCFQGSHVPWTFGQGTKVEIK
notes: as for B1
As to B7, in assay [1], the binding result is on record as “binds”.

B8: humanized antibody variant hVH13/hVL7 (antibody, V domains shown)
VH: EVQLVESGGGLVQPGGSLRLSCAASGFTFSTYGVHWVRQAPGKGLEWVSVIWRGGSTDYSAAFMSRFTISRDNSKNTVYFQMNSLRAEDTAVYYCARQAYGHYMDYWGQGTLVTVSS
VL: DVVMTQSPLSLPVTLGQPASISCRSSQNIVHSNGNTYLEWYLQRPGQSPRLLIYKVSNRFSGVPDRFSGSGSGTDFTLKISRVEAEDVGVYYCFQGSHVPWTFGQGTKVEIK
notes: as for B1
As for B8, in assay [1], the binding result is “binds”.

B9: humanized antibody variant hVH1/hVL8 (antibody, V domains shown)
VH: EVQLVESGGGLVQPGGSLRLSCAASGFTFSTYGVHWVRQAPGKGLEWVSVIWRGGSTDYSAAFMSRFTISRDNSKNTLYLQMNSLRAEDTAVYYCARQAYGHYMDYWGQGTLVTVSS
VL: DVLMTQSPLSLPVTLGQPASISCRSSQNIVHSNGNTYLEWFQQRPGQSPRLLIYKVSNRFSGVPDRFSGSGSGTDFTLKISRVEAEDVGVYYCFQGSHVPWTFGGGTKVEIK
notes: as for B1
In the case of B9, the binding result in assay [1] is “binds”.

B10: humanized antibody variant hVH26/hVL8 (antibody, V domains shown)
VH: EVQLVESGGGLVQPGGSLRLSCAASGFSFATYGVHWVRQSPGKGLEWLGVIWRGGSTDYSAAFMSRLTISKDNSKNTVYLQMNSLRAEDTAVYFCAKQAYGHYMDYWGQGTSVTVSS
VL: DVLMTQSPLSLPVTLGQPASISCRSSQNIVHSNGNTYLEWFQQRPGQSPRLLIYKVSNRFSGVPDRFSGSGSGTDFTLKISRVEAEDVGVYYCFQGSHVPWTFGGGTKVEIK
notes: as for B1
For the molecule B10, the binding result in assay [1] is given as “binds”.

B11: humanized antibody variant hVH9/hVL7 (antibody, V domains shown)
VH: EVQLVESGGGLVQPGGSLRLSCAASGFTFSTYGVHWVRQAPGKGLEWVSVIWRGGSTDYSAAFMSRFTISRDNSKNTLYLQMNSLRAEDTAVYFCAKQAYGHYMDYWGQGTLVTVSS
VL: DVVMTQSPLSLPVTLGQPASISCRSSQNIVHSNGNTYLEWYLQRPGQSPRLLIYKVSNRFSGVPDRFSGSGSGTDFTLKISRVEAEDVGVYYCFQGSHVPWTFGQGTKVEIK
notes: as for B1
As to B11, the binding result in assay [1] is “binds”.

B12: humanized antibody variant hVH28/hVL7 (antibody, V domains shown)
VH: EVQLVESGGGLVQPGGSLRLSCAASGFSFATYGVHWVRQSPGKGLEWLGVIWRGGSTDYSAAFMSRLTISKDNSKNTVYFQMNSLRAEDTAVYYCARQAYGHYMDYWGQGTSVTVSS
VL: DVVMTQSPLSLPVTLGQPASISCRSSQNIVHSNGNTYLEWYLQRPGQSPRLLIYKVSNRFSGVPDRFSGSGSGTDFTLKISRVEAEDVGVYYCFQGSHVPWTFGQGTKVEIK
notes: as for B1
For the molecule B12, the binding result in assay [1] is recorded as “binds”.

(Values after US20150064179A1 (BIOTEST, published 2015).)
